B1: M. smegmatis acyl carrier protein AcpM (MSMEG_4326) (natural protein)
chain: MAATQEEIIAGLAEIIEEVTGIEPSEVTPEKSFVDDLDIDSLSMVEIAVQTEDKYGVKIPDEDLAGLRTVGDVVAYIQKLEEENPEAAAALREKFAADQ
B2: M. tuberculosis MmpS5 (natural protein)
chain: MIGTLKRAWIPLLILVVVAIAGFTVQRIRTFFGSEGILVTPKVFADDPEPFDPKVVEYEVSGSGSYVNINYLDLDAKPQRIDGAALPWSLTLKTTAPSAAPNILAQGDGTSITCRITVDGEVKDERTATGVDALTYCFVKSA

Key:
[1] = target: T1, M. tuberculosis MmpL5 Δ494-688 with C-terminal GFP-FLAG tag (M. tuberculosis, UniProt P9WJV1 1-964, Δ494-688); test: cryo-EM structure; conditions: both partners purified
T1 construct: also called MmpL5ΔCC; MmpL5 ΔCC

[2] = target: T1, M. tuberculosis MmpL5 Δ494-688 with …; test: co-purification (anti-FLAG affinity, then SEC); conditions: partners not purified

Binder	binding result [1]	binding result [2]
B1	binds	–
B2	–	binds
